Measured values: the DeepSol protein solubility set

Test: soluble on expression in E. coli; label from the status in PepcDB or PDB records

| Sequence | soluble on expression in E. coli |
| --- | --- |
| MGSDKIHHHHHHMVAMQSYPYVITVSSEKGGVGKTTLATNLAIYLKALDENLPVSIFSFDNHFTVDRMFEIRGQRTTGTVADLLLETPGRDLIHTGQYGVGYIPSSPNLSDLKGTVKTPMMLARLLALSRIPGVVVIDTRPDLDILTQNALFAADRAIIPVKDMPSLENCRNIFALFEQRGLDRKSLSLIPCLVDERIKFDGPFSDQKTLLKAYAINRGYRCFETYISKSPKVESLNTNPDGKIYPILTHAKWTEVHGQFAQLAQTIITEFRATAEPRAFLFHQWLQSEEVRKKEAFFARLSGIKSECLLCGRPVSGKDSDRVSFYFEVSDGSAAGFFEEECFFRLLMTNVYNLDINLADDDPTLQIMRDAARESAFVFRPVTNGSGTTVDFHRFGLDGVHLLKKAYPLREFEGGMLTREKSRLFSLLSETFGNRLDASPDSFLLVHPVHQEKPEAILQEECYRGFARLRQRIAQQVLPPN | not soluble |
| MGHHHHHHSHMRENNLHTVCEEAKCPNIHECWAVRRTATFMILGSVCTRACRFCAVKTGLPTELDLQEPERVADSVALMNLKHAVITAVARDDQKDGGAGIFAETVRAIRRKSPFTTIEVLPSDMGGNYDNLKTLMDTRPDILNHNIETVRRLTPRVRARATYDRSLEFLRRAKEMQPDIPTKSSIMIGLGETKEEIIEVMDDLLANNVDIMAIGQYLQPTKKHLKVQKYYHPDEFAELKEIAMQKGFSHCEAGPLVRSSYHADEQVNEASKKRQAQA | soluble |
| MNRLMTLTGAGLALAFSVSIAQAQVVVSSKIDTEGGVLGNIILAVLNQNKIETTDRIQLGATPVVRKAITAGEIDIYPEYTGNAAFFFSKADDPLWKDAAKGYEEAKTLDYDANKIVWLAPSPANNTWAIALRKDVADKNNLKTLSDFGKYVAGGGTVVLAASSEFVNSAAALPAFQTTYGFTMKPDQLITLSGGDTAATIAAAANQTNNANAAMVYGTDGGIAPSGLVVLEDDKHVQPVYQPAPIIREEVLKKHPNIEELLKPVFEKLDLATLQDLNARVQVGGEQAKTVAMDFLTKNGFAK | not soluble |
| MGHHHHHHSHMPKKKTGARKKAENRREREKQLRASRSTIDLAKHPCNASMECDKCQRRQKNRAFCYFCNSVQKLPICAQCGKTKCMMKSSDCVIKHAGVYSTGLAMVGAICDFCEAWVCHGRKCLSTHACACPLTDAECVECERGVWDHGGRIFSCSFCHNFLCEDDQFEHQASCQVLEAETFKCVSCNRLGQHSCLRCKACFCDDHTRSKVFKQEKGKQPPCPKCGHETQETKDLSMSTRSLKFGRQTGGEEGDGASGYDAYWKNLSSDKYGDTSYHDEEEDEYEAEDDEEEEDEGRKDSDTESSDLFTNLNLGRTYASGYAHYEEQEN | soluble |
| MWYRALFPGATWRIPAKEGKSIYLTFDDGPIPEITPWVLDTLDELGVKATFFCVADNVRRYPDLFAEIQRRGHQVGNHTFHHLQGLKVRTRTYLKDVEEADRLINSRFFRPPHGHLRFMQTLLLSNHYDIIMWDVITRDYNARLSPDTVFGSVVRYARNGSIITFHDSLKAAPNMQQAMPRAVRWLLDEGYTFKCLGDPAD | not soluble |
| MSLGKFTAVILDFETTGLSPGYGDRAIEIGAVLVRNNRIVDRFQSLMNPGKRVSGFIEEYTGITNEMLAKAPPAEQVMERFASFIAGHNLVAHNASFDRRFLDAELSRIGRRRTGDFACSMLAARRIYTNAPNHRLETLVSHLSLQTDGVFHRALADAEMTAQLWTAMIGELKETYRLRQVTFELMHSLGGVAKKAVPAYLERVAAGREGHHHHHH | not soluble |
| MMRKVALFGFSLLLLAGCSSSDSSLPLFSSLPKGVTLVEEVKAEPGKVMIPYSKYRLDNGLTVILSPDDSDPLVHVDVTYHVGSAREEIGKSGFAHFFEHMMFQGSKHVGDQQHFRLITEAGGSLNGTTNRDRTNYFETVPANQLEKMLWLEADRMGFLLDAVSQRKFEIQRDTVKNERAQNYDNRPYGLMWEKMGEALYPEGHPYSWQTIGYVSDLDRVDVNDLKAFFLRWYGPNNAVLTIGGDLDVKQTLAWVQKYFGSIPKGPDVVDAPKQPARLSEDRFITLEDRVQQPMLLIGWPTQYWGAEDQVALDALASALGSGNNSLLYQELVKTQKAVDAGAFQDCAELACTFYVYAMAPSGAKGKLAPLYQETLQVLEKFKQQGVSASRLEQIIGSEEASAVFALESVKGKVSQLAANQTFFDQPDRIESQLEKIRAVTPESVKQVFTRYLDGQPKVTLSVVAKGKTDFAVRPATFITPERQLPEYQKIGDEQLAYREVKDSFDRSQMPQVAQAVQPRLPKLYDVYFDNGVQLLGTQTRETPTVLIEIQLPAGERQVAMGKEGLANLTASLLQEGSQNRSAEAIQAQLDKLGSSIQVVAGAYSTSIVVSSLKKNLPETLQISQEMLLKPAFKQSDFARLQQQMLQGVVYQHQQPSWLASQATRQVLWGESLFARSGDGTQASISALTLKDVKQFYRQHYTPHGAQIAVVGDISAREIRQQLQFIADWKGEAAPLINPQVVPTLTKQKIYLVDKPGAPQSIIRMVRKGLPFDATGELYLTQLANFNLAGNFNSRINQNLREDKGYTYGAGSYFASNREIGAIVFNAPVRADVTVEAIQEMIKEMHHFSQAGMSEEEMKFLRLAVGQQDALMYETPAQKAQLVSSILTYSLDRDYLQQRNEIVKSVDRSTLNELAAKWFNPEDYQIIVVGDAKRLKPQLEKLGIPLEELEIIR | not soluble |
| MSDSSQLHKVAQRANRMLNVLTEQVQLQKDELHANEFYQVYAKAALAKLPLLTRANVDYAVSEMEEKGYVFDKRPAGSSMKYAMSIQNIIDIYEHRGVPKYRDRYSEAYVIFISNLKGGVSKTVSTVSLAHAMRAHPHLLMEDLRILVIDLDPQSSATMFLSHKHSIGIVNATSAQAMLQNVSREELLEEFIVPSVVPGVDVMPASIDDAFIASDWRELCNEHLPGQNIHAVLKENVIDKLKSDYDFILVDSGPHLDAFLKNALASANILFTPLPPATVDFHSSLKYVARLPELVKLISDEGCECQLATNIGFMSKLSNKADHKYCHSLAKEVFGGDMLDVFLPRLDGFERCGESFDTVISANPATYVGSADALKNARIAAEDFAKAVFDRIEFIRSN | soluble |
| MGHHHRRDTERVCIRTRKIYDWVTRQVDVPLRSFSGEDLEAIFPMDHCRREGTICDFLGAQHTNPQHLTIRCFLTDADGNPIDSVVDQDALICQEITQPNGRQSVNVTLPSGETVTLQKVKALIKGHVVVQIVSPAGTVICQSKPIPFATAQTFILCAPEGTQLNCHISFFECDTSLVCTDNFAQLDVSITLCLEVQVEADVKIEVEARFCQPREELAEAVLCPTTKFPPQCPDVFPAM | not soluble |
| MGSDKIHHHHHHMLKDLVREKLLTIMNTKAYTQFNPEQLLQLENEMKIYMKSGDSALTEGNYFFLMEMLFYVLVYRNQDVDAQVVYNTLRDRLGENSYKMVIMKATLLQINGNDKGAIEYLENLLNDDLEYETDFVTYVSIAKKLIAIKTTSKNLSQESVLKEVVALTDKFPLDAELWWYASEIYFEMGQFEKACYCLEQVLCITPFNYACFGRLSETLYYEALRSKKQTKTELLEKALKNALRSVELSELYLKGWALVNIISRELGRNKQNDLIKLSASKLKEISAKSNNKDKITAELILNKI | not soluble |
| MGSDKIHHHHHHMGFWHSMSWKTEGIRVTAPVQWRQYDGMVSVLWEAESQAGASGYYLADDPRIMFFFNDVSSSVRISNQDNDLARNSRPMARAVYVPAGVPLWTGSRKTHSFSHLNLHLHKDRVLRFLAPSVGNSAAQTALRCPVELQNVAAIDALAKLLADEIKSPTKHAVYAESLIGSIIAGLLDIPTEREERAGGRLTQAQINKLVSHIDALGDYRMSVADMAAVVGLSESWFASVFKQTMGITPLQWQLAKRVELTKKLLGESDLPVASIAAQLGFADQAHLTKVFRQIVGETPAAWRRMRQFRQS | not soluble |
| MRCPKCNYHKSSVVDSRQAEDGNTIRRRRECEQCHTRFTTFERVEELPLLVIKKDGTREQFSRDKILNGVVQSAQKRPVSSTDIENVISRIEQEVRTTYENEVSSTAIGNLVMDELAELDEITYVRFASVYKSFKDVDEIEELLQQITNRVRGKKKRLNNDETN | not soluble |
| GTIPKPTLWAEPDSVITQGSPVTLSCQGSLEAQEYRLYREKKSASWITRIRPELVKNGQFHIPSITWEHTGRYGCQYYSRARWSELSDPLVLVMTGAYPKPTLSAQPSPVVTSGGRVTLQCESQVAFGGFILCKEGEDEHPQCLNSQPHARGSSRAIFSVGPVSPNRRWSHRCYGYDLNSPYVWSSPSDLLELLVPG | soluble |
| GDKAYTDAESYTKGLHKIYSVWALSGQDGSSSSDISGLDAGNTALLRCWWTLQEQPTDEMKNAWNDAWCTEVNYMTWTTNKVEPIEGVYQRCMYIVALVNEFLKNIPNAPESIDKESYIAQARFNRAFAYYVLMDMFALPPFITEKNYSIEPAPLSREDLFNWIEAELNEIKPNLPSPRSEYGVADQAVASALLARMYLNAEIYTGKARYTECINACNEVIKAGYQLADNYADLFKADNGENPDTKKEIIYPIIFDGDKTQSWGMAAIIIGARGAEDKDVLLAHSGVDQGWAGFRATSNLVHLFDFQNDEEPKASEIQDKRGIFYDKGRSIDITSSVSGTFETEGWSVFKFSNLNSNGQPGKNTLWVDTDFPMFRLGDIYLMYAEAVARGGEGSKASAVEYINALRKRAYGDDKHNISENWLEENNFRNLLDERGRELYWEGIRRTDLVRFDLLTSGSYTWDFKGGINTGVGVNKRYNVYPIPVTDLTVNGNLQQNEGY | soluble |
| MSLKRIYGSNRYETSIMVSKEGWDKSSYAVISRGDNFADALCAVPLSKKYNAPILLIGKDKLNNNLKSELKRLNVSKVFITGGEGVISKTLEGEIKNIPNIKEVKRLGGKDRYETSKLIAESVGCNGEIVVTAGTNSSDTLSISPIAANKNMPILLTAKDKNLMQKYLKSNKVNKTFVIGGEKCVSKEIENILPNVERIYGENRYETNEKIIKRFSNSLDFKNVYIALAQSQRGDEFADALSSAALAAQKNSPIILIYKDIYKNTKDILNTKLSNESIVSILGGEKLISDNILDNLAISKNEGHHHHHH | not soluble |
| MSLAGHQAMHYSRILPNIWLGSCPRQVEHVTIKLKHELGITAVMNFQTEWDIVQNSSGCNRYPEPMTPDTMIKLYREEGLAYIWMPTPDMSTEGRVQMLPQAVCLLHALLEKGHIVYVHCNAGVGRSTAAVCGWLQYVMGWNLRKVQYFLMAKRPAVYIDEEALARAQEDFFQKFGKVRSEGHHHHHH | soluble |
| MSNSAQRDARNSRDESARASDTDRIQIAQLLAYAAEQGRLQLTDYEDRLARAYAATTYQELDRLRADLPGAAIGPRRGGECNPAPSTLLLALLGGFERRGRWNVPKKLTTFTLWGSGVLDLRYADFTSTEVDIRAYSIMGAQTILLPPEVNVEIHGHRVMGGFDRKVVGEGTRGVPTVRIRGFSLWGDVGIKRKPRKPRK | not soluble |
| MSLNGEGAVPTLVGYGADTAIETSRRTSRPLAAPVVRKLAKELAVDLAALQRGSGAGGVITRADVLAAARGGVGAGPDVRPVHGVHARMAEKMTLSHKEIPTAKASVEVICAELLRLRDRFVSAAPEITPFALTLRLLVIALKHNVILNSTWVDSGEGPQVHVHRGVHLGFGAATERGLLVPVVTDAQDKNTRELASRVAELITGAREGTLTPAELRGSTFTVSNFGALGVDDGVPVINHPEAAILGLGAIKPRPVVVGGEVVARPTMTLTCVFDHRVVDGAQVAQFMCELRDLIESPETALLDLEGHHHHHH | soluble |
| MSLPGNNSAKGTATGNATALWRNAQLATLNPAMDGIGAVENAVIAVRNGRIAFAGPESDLPDDLSTADETTDCGGRWITPALIDCHTHLVFGGNRAMEFEMRLNGATYEEIAKAGGGIVSSVRDTRALSDEVLVAQALPRLDTLLSEGVSTIEIKSGYGLDIETELKMLRVARRLETLRPVRIVTSYLAAHATPADYKGRNADYITDVVLPGLEKAHAEGLADAVDGFCEGIAFSVKEIDRVFAAAQQRGLPVKLHAEQLSNLGGAELAASYNALSADHLEYLDETGAKALAKAGTVAVLLPGAFYALREKQLPPVQALRDAGAEIALATDCNPGTSPLTSLLLTMNMGATLFRMTVEECLTATTRNAAKALGLLAETGTLEAGKSADFAIWDIERPAELVYRIGFNPLHARIFKGQKVSPEGHHHHHH | soluble |
